# In paper PMC4970216:
# B1: Organic anion transporting polypeptide (OATP) 1B1 (Homo sapiens) (protein)
# chain: MDQNQHLNKTAEAQPSENKKTRYCNGLKMFLAALSLSFIAKTLGAIIMKSSIIHIERRFEISSSLVGFIDGSFEIGNLLVIVFVSYFGSKLHRPKLIGIGCFIMGIGGVLTALPHFFMGYYRYSKETNINSSENSTSTLSTCLINQILSLNRASPEIVGKGCLKESGSYMWIYVFMGNMLRGIGETPIVPLGLSYIDDFAKEGHSSLYLGILNAIAMIGPIIGFTLGSLFSKMYVDIGYVDLSTIRITPTDSRWVGAWWLNFLVSGLFSIISSIPFFFLPQTPNKPQKERKASLSLHVLETNDEKDQTANLTNQGKNITKNVTGFFQSFKSILTNPLYVMFVLLTLLQVSSYIGAFTYVFKYVEQQYGQPSSKANILLGVITIPIFASGMFLGGYIIKKFKLNTVGIAKFSCFTAVMSLSFYLLYFFILCENKSVAGLTMTYDGNNPVTSHRDVPLSYCNSDCNCDESQWEPVCGNNGITYISPCLAGCKSSSGNKKPIVFYNCSCLEVTGLQNRNYSAHLGECPRDDACTRKFYFFVAIQVLNLFFSALGGTSHVMLIVKIVQPELKSLALGFHSMVIRALGGILAPIYFGALIDTTCIKWSTNNCGTRGSCRTYNSTSFSRVYLGLSSMLRVSSLVLYIILIYAMKKKYQEKDINASENGSVMDEANLESLNKNKHFVPSAGADSETHC
# Substrate: C[C@]12CC[C@@H]3c4ccc(O)cc4CC[C@H]3[C@@H]1CC[C@@H]2O[C@@H]1O[C@H](C(=O)O)[C@@H](O)[C@H](O)[C@H]1O
# Assay: cells, lysate or membranes
# Type: cell-based, Homo sapiens
protein,measurement,value
B1,Km,7.20 ± 0.57 µM
